Test results reported in paper PMC2185075 (The Journal of Cell Biology, 1999).
Read-outs that look alike come from different tables or passages of the source.

How the values were obtained:
Experiment in all cases: two-hybrid
SC35, two-hybrid fusion [1] = molecular target: SC35, two-hybrid fusion (UniProt Q01130)
[2] = molecular target: ASF/SF2, two-hybrid fusion (UniProt Q07955)
SC35, two-hybrid fusion [3] = molecular target: SC35, two-hybrid fusion (UniProt Q01130); remark: listed apart in the source
[4] = molecular target: ASF/SF2, two-hybrid fusion (UniProt Q07955); remark: listed apart in the source
[5] = molecular target: ASF/SF2, two-hybrid fusion (UniProt Q07955); remark: listed apart in the source
SC35, two-hybrid fusion [6] = molecular target: SC35, two-hybrid fusion (UniProt Q01130); remark: listed apart in the source
[7] = molecular target: ASF/SF2, two-hybrid fusion (UniProt Q07955); remark: listed apart in the source
[8] = molecular target: T1, U2AF65, two-hybrid fusion (UniProt P26368 1-475)
T1 sequence (P26368 whole entry, the tested form may be a part, one chain of several): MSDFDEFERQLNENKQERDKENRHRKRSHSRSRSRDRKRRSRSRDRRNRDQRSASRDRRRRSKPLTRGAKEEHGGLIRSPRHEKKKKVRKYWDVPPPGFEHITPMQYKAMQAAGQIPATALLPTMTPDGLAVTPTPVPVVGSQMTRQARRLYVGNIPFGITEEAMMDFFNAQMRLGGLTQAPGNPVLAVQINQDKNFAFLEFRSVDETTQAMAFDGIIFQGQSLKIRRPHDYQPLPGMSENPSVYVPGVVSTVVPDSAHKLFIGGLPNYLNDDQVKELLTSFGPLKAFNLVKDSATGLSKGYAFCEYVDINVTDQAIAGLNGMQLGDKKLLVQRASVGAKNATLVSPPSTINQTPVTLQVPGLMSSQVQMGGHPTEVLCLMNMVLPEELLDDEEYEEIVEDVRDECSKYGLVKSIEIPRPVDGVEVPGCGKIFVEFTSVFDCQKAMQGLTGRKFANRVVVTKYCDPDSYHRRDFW

[9] = molecular target: T2, U2AF65ΔRS, two-hybrid fusion (UniProt P26368 66-475)
T2 sequence (P26368 66-475, stated change not applied): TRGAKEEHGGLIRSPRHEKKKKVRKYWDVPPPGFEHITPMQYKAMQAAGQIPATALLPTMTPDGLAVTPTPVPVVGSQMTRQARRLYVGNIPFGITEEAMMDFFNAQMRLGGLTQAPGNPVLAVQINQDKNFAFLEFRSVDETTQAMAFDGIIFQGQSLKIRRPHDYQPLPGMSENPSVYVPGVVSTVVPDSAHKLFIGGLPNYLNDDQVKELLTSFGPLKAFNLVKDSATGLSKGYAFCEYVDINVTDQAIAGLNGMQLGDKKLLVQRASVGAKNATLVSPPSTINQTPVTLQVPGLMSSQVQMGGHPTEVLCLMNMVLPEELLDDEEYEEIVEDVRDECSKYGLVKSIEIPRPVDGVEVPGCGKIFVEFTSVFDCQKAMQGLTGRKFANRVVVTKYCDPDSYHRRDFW

[10] = molecular target: T1, U2AF65, two-hybrid fusion; remark: listed apart in the source
[11] = molecular target: T2, U2AF65ΔRS, two-hybrid fusion; remark: listed apart in the source

SC35, two-hybrid fusion, sequence (Q01130 whole entry, the tested form may be a part): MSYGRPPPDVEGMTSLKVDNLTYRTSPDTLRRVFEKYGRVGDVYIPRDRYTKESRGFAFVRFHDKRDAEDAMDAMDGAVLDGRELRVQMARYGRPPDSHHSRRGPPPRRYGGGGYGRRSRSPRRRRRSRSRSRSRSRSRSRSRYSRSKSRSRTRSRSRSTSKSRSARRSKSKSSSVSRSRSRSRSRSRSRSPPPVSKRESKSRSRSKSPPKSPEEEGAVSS
ASF/SF2, two-hybrid fusion, sequence (Q07955 whole entry, the tested form may be a part): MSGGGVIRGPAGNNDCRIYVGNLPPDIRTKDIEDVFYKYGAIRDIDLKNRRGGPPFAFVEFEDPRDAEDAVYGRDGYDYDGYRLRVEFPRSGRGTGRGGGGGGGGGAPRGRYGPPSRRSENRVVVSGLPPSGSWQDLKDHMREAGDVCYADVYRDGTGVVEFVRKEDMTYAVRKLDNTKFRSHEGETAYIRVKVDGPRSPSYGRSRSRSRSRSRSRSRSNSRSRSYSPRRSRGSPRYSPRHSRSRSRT

U1-70K, two-hybrid fusion (from UniProt P08621 1-437) (natural protein; other documents disagree on this pair)
percentage of the maximal two-hybrid interaction (β-galactosidase) (SC35, two-hybrid fusion [1]): 104%
percentage of the maximal two-hybrid interaction (β-galactosidase) [2]: 100%
percentage of the maximal two-hybrid interaction (β-galactosidase) (SC35, two-hybrid fusion [3]): 100%
percentage of the maximal two-hybrid interaction (β-galactosidase) [4]: 100%
percentage of the maximal two-hybrid interaction (β-galactosidase) [5]: 35%
percentage of the maximal two-hybrid interaction (β-galactosidase) (SC35, two-hybrid fusion [6]): 86%
percentage of the maximal two-hybrid interaction (β-galactosidase) [7]: 98%

B1: U2AF35ΔRS, two-hybrid fusion (domain or fragment)
chain: MAEYLASIFGTEKDKVNCSFYFKIGACRHGDRCSRLHNKPTFSQTIALLNIYRNPQNSSQSADGLRCAVSDVEMQEHYDEFFEEVFTEMEEKYGEVEEMNVCDNLGDHLVGNVYVKFRREEDAEKAVIDLNNRWFNGQPIHAELSPVTDFREACCRQYEMGECTRGGFCNFMHLKPISRELRRELYGRRR
two-hybrid β-galactosidase, fold over background (empty prey vector) [8]: 308 fold over background
two-hybrid β-galactosidase, fold over background (empty prey vector) [9]: 347 fold over background
two-hybrid β-galactosidase, fold over background (empty prey vector) [10]: 93 fold over background
two-hybrid β-galactosidase, fold over background (empty prey vector) [11]: 460 fold over background

B2: U2AF35, two-hybrid fusion (natural protein)
chain: MAEYLASIFGTEKDKVNCSFYFKIGACRHGDRCSRLHNKPTFSQTIALLNIYRNPQNSSQSADGLRCAVSDVEMQEHYDEFFEEVFTEMEEKYGEVEEMNVCDNLGDHLVGNVYVKFRREEDAEKAVIDLNNRWFNGQPIHAELSPVTDFREACCRQYEMGECTRGGFCNFMHLKPISRELRRELYGRRRKKHRSRSRSRERRSRSRDRGRGGGGGGGGGGGGRERDRRRSRDRERSGRF
two-hybrid β-galactosidase, fold over background (empty prey vector) [9]: 340 fold over background
